This note sets out measurements from US20180162938A1 (GANYMED PHARMACEUTICALS, published 2018).

The target in assay [1] is CLDN6 SNP (single nucleotide polymorphism) variant I143V (human) (UniProt P56747). Description: flow cytometry, HEK293T transiently co-transfected with the claudin and a fluorescence reporter; other quadrants printed: Q1 0,18, Q3 64,8…, Q4 34,5…. For orientation: In flow cytometry, cells or beads pass a laser one at a time.
For assay [2], the target named is human CLDN3 (claudin 3) (human) (UniProt O15551). The assay is described as follows: flow cytometry, HEK293T transiently co-transfected with the claudin and a fluorescence reporter; other quadrants printed: Q1 0,32, Q3 63,10, Q4 36,2….
Chain of human CLDN3 (claudin 3) (human) (O15551 whole entry): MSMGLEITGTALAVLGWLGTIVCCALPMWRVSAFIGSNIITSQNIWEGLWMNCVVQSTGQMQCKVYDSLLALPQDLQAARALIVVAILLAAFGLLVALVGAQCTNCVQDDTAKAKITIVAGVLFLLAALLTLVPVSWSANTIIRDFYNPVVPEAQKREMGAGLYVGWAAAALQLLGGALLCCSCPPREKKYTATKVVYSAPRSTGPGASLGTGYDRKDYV
In assay [3] the target is T1, human CLDN6 (claudin 6), full length (human, UniProt P56747 1-220).
T1 construct: Expressed untagged from vector p3953 in HEK293T, HEK293 and CHO-K1 cells; endogenous in NEC8 and OV90 cells; In the Western blots it stood in denatured cell lysate; also called wild-type CLDN6
T1 sequence: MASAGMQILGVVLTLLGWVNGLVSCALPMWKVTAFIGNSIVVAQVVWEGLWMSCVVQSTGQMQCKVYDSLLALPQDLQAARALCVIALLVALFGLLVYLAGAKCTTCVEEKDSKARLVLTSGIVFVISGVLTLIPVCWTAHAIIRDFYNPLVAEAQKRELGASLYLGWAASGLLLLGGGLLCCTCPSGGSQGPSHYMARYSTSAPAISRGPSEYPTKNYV
Description: flow cytometry, HEK293T transiently co-transfected with the claudin and a fluorescence reporter; other quadrants printed: Q1 0,09, Q3 75,0…, Q4 24,73.

In assay [4] the target is human CLDN4 (claudin 4) (human) (UniProt O14493). The assay is described as follows: flow cytometry, HEK293T transiently co-transfected with the claudin and a fluorescence reporter; other quadrants printed: Q1 0,47, Q3 51,89, Q4 46,45.
Chain of human CLDN4 (claudin 4) (human) (O14493 whole entry): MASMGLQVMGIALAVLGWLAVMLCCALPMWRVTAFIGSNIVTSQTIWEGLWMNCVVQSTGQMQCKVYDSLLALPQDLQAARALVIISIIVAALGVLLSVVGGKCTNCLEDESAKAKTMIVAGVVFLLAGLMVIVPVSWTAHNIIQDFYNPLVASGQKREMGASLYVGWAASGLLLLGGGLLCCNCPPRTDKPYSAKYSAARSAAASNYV
In assay [5] the target is human CLDN9 (claudin 9) (human) (UniProt O95484). Description: flow cytometry, HEK293T transiently co-transfected with the claudin and a fluorescence reporter; other quadrants printed: Q1 0,65, Q3 53,91, Q4 44,03.
Chain of human CLDN9 (claudin 9) (human) (O95484 whole entry): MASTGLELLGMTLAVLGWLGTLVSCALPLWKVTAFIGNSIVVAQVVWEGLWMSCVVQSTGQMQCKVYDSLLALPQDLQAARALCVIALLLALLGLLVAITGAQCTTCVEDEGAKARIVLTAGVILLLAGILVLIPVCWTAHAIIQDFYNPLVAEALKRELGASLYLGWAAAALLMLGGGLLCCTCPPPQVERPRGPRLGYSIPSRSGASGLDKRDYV
Assay [6] concerns the target human CLDN3 (claudin 3) (human) (UniProt O15551). Description: flow cytometry, HEK293T transiently co-transfected with the claudin and a fluorescence reporter; positive control, by the legend MAB4620; other quadrants printed: Q1 37,91, Q3 29,94, Q4 0,76.
Assay [7] deals with CLDN6 SNP (single nucleotide polymorphism) variant I143V (human) (UniProt P56747). The assay is described as follows: flow cytometry, HEK293T transiently co-transfected with the claudin and a fluorescence reporter; positive control, by the legend MAB3656; other quadrants printed: Q1 47,20, Q3 20,26, Q4 0,33.
The target in assay [8] is T1, human CLDN6 (claudin 6), full length. Description: flow cytometry, HEK293T transiently co-transfected with the claudin and a fluorescence reporter; positive control, by the legend MAB3656; other quadrants printed: Q1 58,39, Q3 18,6…, Q4 0,13.
The target is the same in assay [9]. The assay is described as follows: flow cytometry saturation binding (median fluorescence), HEK293 cells stably expressing human CLDN6.

As to Isotype (antibody), the percent of events in Q2 (reporter-positive, antibody-positive) in assay [1] worked out at 0.44; in assay [2] it was 0.37; in [3] it was 0.12; in [4], 1.18; in [5], 1.42.

The molecule “mouse anti-CLDN3 IgG2a (R&D Systems, MAB4620) (antibody)” registered a percent of events in Q2 (reporter-positive, antibody-positive) in [6] of 31.4.

Take “mouse anti-CLDN6 IgG2b (R&D Systems, MAB3656) (antibody)”: the percent of events in Q2 (reporter-positive, antibody-positive) was 32.2 in assay [7] and 22.8 in [8].

B1: murine monoclonal antibody muMAB 67A (antibody, V domains shown)
VH: EVQLQQSGPELVKPGASMKISCKASGYSFTGYTMNWVKQSHGKNLEWIGLINPYNGGIIYNQKFKGKATLTVDKSSSTAYMELLSLTSEDSAVFYCARDFGYVLDYWGQGTTLTVSS
VL: QIVLTQSPAIMSASPGEKVTITCSASSSVSYMHWFQQKPGTSPKLWIYSTSNLASGVPARFSGSGSGTSYSLTISRVAAEDAATYYCQQRSTYPPWTFGGGTKLEIK
On to B1, for which the EC50 (read off the curve) (usually the midpoint of the concentration-response curve) in assay [9] is around 0.4 µg/mL.
